The target of experiment [1] is T1, rat GHS-R (GHS receptor) expressed on CHO-GHSR62 cells (rat, UniProt O08725 1-364). As to the kind of experiment: cell-based or functional assay.
Experiment [2] has as its target T1, rat GHS-R (GHS receptor) expressed on …. As to the kind of experiment: cell-based or functional assay. This is another data set of the same source.
Experiment [3] addresses amino-terminal antibody (anti-[C-Cys]-rat ghrelin [1-11] antigen). The experiment in a line: radioimmunoassay: inhibition of binding of radioisotope-labeled rat ghrelin to the amino-terminal antibody.
Experiment [4] has as its target T1, rat GHS-R (GHS receptor) expressed on …. The experiment in a line: cell-based or functional assay. The source holds these as a separate data set.
For experiment [5] the target is unchanged. The experiment in a line: cell-based or functional assay. This is another data set of the same source.
The target is the same in experiment [6]. As to the kind of experiment: cell-based or functional assay. The source holds these as a separate data set.
The target is the same in experiment [7]. As to the kind of experiment: cell-based or functional assay. The source holds these as a separate data set.

Where two headings read alike, the source gives them in different places. Square brackets hold non-standard residues; d marks the D form. Ends that are not written are not given here. * marks the point of attachment. NMeF = CN[C@@H](Cc1ccccc1)C(=O)O; NMeL = CN[C@@H](CC(C)C)C(=O)O; Octanoyl = CCCCCCCC(=O)*; Ava = NCCCCC(=O)O; Octyl = CCCCCCCC*

T1 sequence (O08725 whole entry): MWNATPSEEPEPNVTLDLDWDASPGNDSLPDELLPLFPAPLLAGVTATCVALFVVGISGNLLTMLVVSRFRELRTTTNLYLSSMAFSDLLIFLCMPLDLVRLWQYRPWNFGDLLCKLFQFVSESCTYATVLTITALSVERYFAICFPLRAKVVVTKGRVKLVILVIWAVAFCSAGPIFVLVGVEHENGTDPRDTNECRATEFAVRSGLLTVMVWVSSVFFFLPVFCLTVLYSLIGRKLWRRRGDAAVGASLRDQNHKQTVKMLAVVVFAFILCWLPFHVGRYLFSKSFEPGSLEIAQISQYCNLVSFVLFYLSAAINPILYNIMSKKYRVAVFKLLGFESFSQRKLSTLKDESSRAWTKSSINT

Regarding Ac-GSS(Octanoyl)FLSPEHQ [[N-Acetyl]-Ghrelin (1-10)], the “Ca-releasing activity EC50” value in experiment [1] was more than 10000 nM.

B1: [Leu^2]-Ghrelin (1-7)-amide (peptide)
peptide: GLS(Octanoyl)FLSP-NH2
modifications: N-terminus assumed
SMILES: CCCCCCCC(=O)OC[C@H](NC(=O)[C@H](CC(C)C)NC(=O)CN)C(=O)N[C@@H](Cc1ccccc1)C(=O)N[C@@H](CC(C)C)C(=O)N[C@@H](CO)C(=O)N1CCC[C@H]1C(N)=O
In the case of B1, in experiment [1], the “Ca-releasing activity EC50” value was 42 nM.

Turning to GSS(Octanoyl)FLSPEHQKAQQRKESKKPPAKLQPR [rat ghrelin], the “EC50 value” in experiment [2] was 1.5 nM. This molecule also registered a cross-reactivity in experiment [3] of 100%. Further, the “Ca-releasing activity EC50” value turned out to be 2.5 nM in experiment [4] and 1.5 nM in experiment [5].

B2: [N-Aminopentanoyl]-Ghrelin (3-7)-amide (peptide)
peptide: [Ava]S(Octanoyl)FLSP-NH2
modifications: N-terminus assumed
SMILES: CCCCCCCC(=O)OC[C@H](NC(=O)CCCCN)C(=O)N[C@@H](Cc1ccccc1)C(=O)N[C@@H](CC(C)C)C(=O)N[C@@H](CO)C(=O)N1CCC[C@H]1C(N)=O
Take B2: the “Ca-releasing activity EC50” value in experiment [1] stood at 3.4 nM.

For the molecule GSK(Octanoyl)FLSPEHQRVQQRKESKKPPAKLQPR [[Lys^3(Octanoyl)]-hGhrelin], the “Activity EC50” value in experiment [6] is 32 nM.

As usually defined, the EC50 is the concentration at which the effect is half-maximal. Lower therefore signals greater potency. In turn, [Ava]S(Octyl)[NMeF][NMeL]-NH2 [[N-Aminopentanoyl,Ser^3(Octyl),MePhe^4,MeLeu^5]-Ghrelin (3-5)-amide] gave an EC50 in experiment [4] of 86 nM. In addition, the “Activity EC50” value in experiment [7] came out at 82 nM.

The values are drawn from patent US20090170763A1 (KENJI KANGAWA, published 2009).
